Target: HLA-A*02:01 MHC Class I complex (recombinant, biotinylated) (human)
Assay: displacement of the FITC-labelled in-place peptide from 1 uM HLA-A*02:01; competitor: incoming peptide [..] at 20 uM with 10 mM GlyCha, 4 h at room temperature; FITC on streptavidin capture beads by flow cytometry

B1: EP3 … (SEQ ID NO: 1), FITC-labelled in-place peptide GMGQ{Lys(FITC)}DSYV (peptide)
peptide: GMGQKDSYV
modifications: not checked
In the case of B1, the exchange efficiency is reported as 1.

— patent US20240272171A1, “Methods for Identification of Exchangeable MHC Binding Peptides and Methods of Use Thereof” (PhenomeX Inc., priority 2020, published 2024)
